Test results as given in article PMC11672978, “Assessing the Impact of the Leader Peptide in Protease Inhibition by the Microviridin Family of RiPPs” (Biomedicines, 2024).
One block for each substance: values may come before it.

Columns and labels:
Elastase [1] = biological target: Elastase
Elastase [2] = biological target: Elastase; remark: listed apart in the source
elastase [3] = conditions: mature natural product without leader peptide; read-out: previously reported IC50 for elastase inhibition; cited from earlier work
From the text: Although, the IC50 value we measured is certainly an overestimation of the actual IC50 as it is less than half the concentration of the elastase used in the assay.

- IC50 of inhibition of the hydrolysis of the fluorogenic substrate MeOSuc-AAPV-AMC by elastase (20 nM elastase, 10 nM-10,000 nM MdnA Δ2, 100 mM HEPES pH 8.0, 10% DMSO, room temperature) (Elastase [1]): 840 nM
Substance: MdnA Δ2 (bicyclic microviridin B precursor peptide modified by MdnC only, leader peptide present, N-terminal His-tag)

- IC50 of inhibition of the hydrolysis of the fluorogenic substrate MeOSuc-AAPV-AMC by elastase (20 nM elastase, 0.1 nM-100 nM MdnA Δ3, 100 mM HEPES pH 8.0, 10% DMSO, room temperature) (Elastase [2]): 8.3 nM
Substance: MdnA Δ3 (tricyclic, fully modified microviridin B precursor peptide with the leader peptide present, N-terminal His-tag)

Substance: microviridin B
- IC50 (elastase [3]): 25 nM
